The source of these data is patent publication US20130078720, “METHOD FOR INDUCING PLURIPOTENCY IN HUMAN SOMATIC CELLS WITH PRDM14 OR NFRKB” (Agency for Science, Technology and Research, published 2013).

For this series, the target named is T1, PRDM14 DNA binding domain (C-terminal 179 aa) (Homo sapiens, UniProt Q9GZV8 SEQ:393-571).
T1 sequence: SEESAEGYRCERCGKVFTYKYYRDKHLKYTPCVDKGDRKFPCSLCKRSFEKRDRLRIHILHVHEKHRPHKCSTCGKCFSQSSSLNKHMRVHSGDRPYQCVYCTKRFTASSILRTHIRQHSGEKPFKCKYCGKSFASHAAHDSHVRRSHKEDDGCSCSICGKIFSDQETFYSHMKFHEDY
Description: EMSA; 100 ng protein, 1 ng probe, poly(dI-dC), 10 mM ZnCl2, 60 mM KCl, pH 7.9, room temperature. The following applies: tags: His tag, pET42b, E. coli BL21; label: 5' biotin on sense strand. The procedure: Recombinant PRDM14 DNA binding domain (His tagged) was used in the gel shift assays. Briefly, a cDNA encoding 179 amino acids of the C terminus of PRDM14 was cloned into the pET42b (Novagen) vector using cloning sites NdeI and XhoI. The fusion construct was transformed into BL21 competent cells (Strategene) according to the supplier's instructions. Purified proteins were dialyzed against a dialysis buffer (10 mM Tris-HCl, pH 7.4, 100 mM NaCl, 10 mM ZnCl₂ and 10% glycerol) at 4° C. for 6 hr. Oligonucleotides (Proligo) labeled with biotin at the 5′ end of the sense strands were annealed with the antisense strands in the annealing buffer (10 mM Tris-HCl, pH8.0, 50 mM NaCl, 1 mM EDTA) and purified with agarose gel DNA extraction kit (Qiagen). DNA concentrations were determined by the NanoDrop ND-1000 spectrophotometer. The gel shift assays were performed using a LightShift Chemiluminescent EMSA kit (Pierce Biotechnologies). 100 ng of protein was added to a 5 μl reaction mixture (final) containing 1 μg of poly(dI-dC) (Amersham), 1 ng of biotin-labeled oligonucleotide in the binding buffer (12 mM HEPES, pH7.9, 10% glycerol, 60 mM KCl, 0.25 mM EDTA, 1 mM DTT, 10 mM ZnCl₂). Binding reaction mixtures were incubated for 20 min at room temperature. […] Gels were transferred to Biodyne B nylon membranes (Pierce Biotechnologies) using western blot techniques and detected using chemiluminescence.

B1: CR2 probe (dsDNA)
DNA 1: CAGCTCTAACCCTAAACAAGTGCTCAACCCTTGAATGGGCCTGGATGGCT
DNA 2: AGCCATCCAGGCCCATTCAAGGGTTGAGCACTTGTTTAGGGTTAGAGCTG
On to B1, for which the binding result is given as “binds”.
